In paper PMC2033583, “Temperature sensitivity for conformation is an intrinsic property of wild-type p53”:

Biological target: p53 (murine wild-type) (mouse, UniProt P02340 1-390)
Assay: EMSA; 1,10-phenanthroline, 20 min at 30 C; PAb 421; at least partially resistant to chelator; EMSA on 4% polyacrylamide gels with PAb 421, reticulocyte lysate p53 pre-exposed to OP 20 min at 30 or 37 C; binding buffer, salt and pH not given (as in Hainaut and Milner 1993b)
Conditions: protein: ivt; chain copies: 4; label: 32P

Chain of p53 (murine wild-type) (P02340 whole entry): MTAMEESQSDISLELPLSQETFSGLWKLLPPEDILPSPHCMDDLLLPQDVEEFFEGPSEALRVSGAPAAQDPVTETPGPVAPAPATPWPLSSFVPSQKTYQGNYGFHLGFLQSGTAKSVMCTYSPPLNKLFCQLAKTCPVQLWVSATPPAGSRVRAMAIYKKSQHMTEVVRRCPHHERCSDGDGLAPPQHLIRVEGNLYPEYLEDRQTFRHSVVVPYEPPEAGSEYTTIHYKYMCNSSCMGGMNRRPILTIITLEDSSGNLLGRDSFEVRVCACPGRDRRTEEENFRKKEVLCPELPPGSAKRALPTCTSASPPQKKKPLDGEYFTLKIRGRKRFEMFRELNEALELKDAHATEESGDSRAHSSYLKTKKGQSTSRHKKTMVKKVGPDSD

B1: p53 CON (dsDNA)
DNA 1: GGGCATGTCCGGGCATGTCC
DNA 2: GGACATGCCCGGACATGCCC
B1: binds.
